{"source": "patent US10335470B2", "about": "“Immunogenic compositions comprising progastrin and uses thereof” (Board of Regents, The University of Texas System, priority 2006, dated 2019)", "key": {"[1]": {"target": "T1, specific binding sites for rhPG (Annexin II) (Rattus norvegicus, UniProt Q07936)", "T1 construct": "endogenous in cells; host or cells: AR42J cells; IEC cells", "T1 sequence (Q07936 2-339 limits assumed)": "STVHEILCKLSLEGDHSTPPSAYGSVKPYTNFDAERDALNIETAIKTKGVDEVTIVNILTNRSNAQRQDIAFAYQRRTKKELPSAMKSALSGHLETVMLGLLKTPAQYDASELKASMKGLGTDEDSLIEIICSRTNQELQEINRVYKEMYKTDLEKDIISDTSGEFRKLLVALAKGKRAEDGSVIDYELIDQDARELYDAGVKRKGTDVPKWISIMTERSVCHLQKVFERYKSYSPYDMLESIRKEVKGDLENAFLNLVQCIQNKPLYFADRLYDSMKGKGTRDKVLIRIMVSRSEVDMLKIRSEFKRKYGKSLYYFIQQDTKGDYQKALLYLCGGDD", "assay": "Displacement of 125I-rhPG binding to AR42J and IEC cells", "conditions": "1.0 nM 125I-rhPG", "protocol": "FIGS. 8A-8C show binding of ^125I-rhPG and ^125I-BH-CCK8 to a pancreatic cancer cell line, AR42J and intestinal epithelial cells (IEC). […] The relative binding affinity of the gastrin like peptides for the specific binding sites for rhPG (FIGS. 8A and B) (Annexin II) and CCK8 (FIG. 8C) to CCK2R was calculated. Data in each point represents the mean values of triplicate measurements from a single experiment and is representative of 2 similar experiments. The intra-experimental variation for each data point was <5-10%. The nM concentration of each peptide used is presented in a log-scale on the x-axis; the excess unlabeled peptide used for displacing the binding of the radio labeled ligand is presented in parentheses. The % loss in the relative binding of the radio labeled ligand in the presence of the increasing concentrations of the indicated non-labeled peptide is presented on the y-axis. IEC cells lack CCK2R binding sites and therefore binding with radio-labeled CCK8 was not examined with these cells.\nThe full-length recombinant human PG1-80 (rhPG) was generated in an E. coli expression system and purified and confirmed as described previously (Singh et al, 2003). rhPG was radio labeled with Na ^125I (Amersham, Chicago, Ill.), and the intact ^125I-rhPG purified by HPLC as described previously (Singh et al, 2003). For these experiments, AR42J cells were expanded in vitro in […] and grown to subconfluence in the growth medium containing 10% FCS. […] The binding data was analyzed by a Scatchard plot as described previously (Singh et al, 1995). […]\nIn order to define the RBA of various peptides for the PG binding sites on the cells, cells in suspension were incubated with 1.0 nM ^125I-rhPG in the presence or absence of increasing concentrations (0.1 nM-10.0 μM) of either the homologous or heterologous peptide. Non-specific binding was determined in the presence of 1000× excess of the non-labeled homologous peptide. […] Cell pellets were counted for ^125I in a gamma counter with ˜70% efficiency for ^125I. […]"}, "thioredoxin": {"tested_on": "thioredoxin", "sequence (P0AA25 whole entry)": "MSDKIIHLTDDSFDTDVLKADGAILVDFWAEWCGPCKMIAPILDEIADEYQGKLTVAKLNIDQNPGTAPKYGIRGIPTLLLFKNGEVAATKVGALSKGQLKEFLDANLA", "conditions": "all mouse groups (WT and PS21)", "text": "Briefly, transgenic mice expressing human progastrin (PS21) and wild type mice were divided into 3 groups and immunized with (a) recombinant thioredoxin, (b) a recombinant fusion protein where human progastrin was fused with thioredoxin and recombinant progastrin, all proteins were expressed in E. coli and purified from cell extract. Each protein was emulsified using CFA/IFA (Sigma) as an adjuvant. The mice that received vaccine emulsified using CFA on day 1 followed by two subsequent immunization using IFA on day 21 and day 42. All injections were administered subcutaneously. Mice were bled and serum prepared to estimate the titers once a week for 3 weeks, 15 days after the final immunization.\nThe antibody tires in serum were determined by solid phase ELISA using limiting dilution method. Briefly, 96 wells PVC ELISA plates (Falcon) were coated with 3 different recombinant protein expressed in E. coli that were used to vaccinate mice i.e. recombinant thioredoxin, Thioredoxin-PG fusion protein and recombinant PG. Recombinant proteins were dissolved in carbonate buffer pH 9.0 and coated at a concentration of 50 μg/50 μl/well. The plates were incubated overnight at 4° C. Following day the plates were flipped and the well were blocked with 100 μl 2% non fat dry milk (NFDM) and plated were incubated at 37° C. for 3-4 hours. […] The ELISA plated were them read in plate reader at 490 nm."}, "[2]": {"tested_on": "aberrant crypt foci in PS21 (Fabp-PG) mice", "assay": "Aberrant crypt foci in response to AOM in immunized PS21 Fabp-PG transgenic mice", "format": "in vivo, mouse", "conditions": "immunized PS21 mice vs wild type mice", "protocol": "Aberrant crypt forci (ACFs) are pre-neoplastic markers of colon carcinogenesis and represent dysplastic growth of colonic crypts, which is the earliest stage of pre-cancerous changes in the colonic mucosa as described in detail previously (Singh et al, 2000b). […] These mice were immunized with either thioredoxin, or the progastrin peptide alone or the fusion protein (FP) which contained thioredoxin and progastrin.\nAll injections were administered subcutaneously. […] The ACFs were then counted."}, "progastrin": {"tested_on": "progastrin", "assay": "Anti-progastrin antibody titers in immunized mice (solid phase ELISA)", "format": "in vivo, mouse", "conditions": "for anti-PG-antibody titers: PS21 transgenic and WT mice, CFA/IFA, s.c. day 1, 21, 42"}, "[3]": {"tested_on": "intestinal epithelial cells (IEC), colon cancer cells and pancreatic cancer cells", "conditions": "cited from earlier work"}, "CCK2R": {"target": "T2, CCK2R (Rattus norvegicus, UniProt P30553)", "T2 construct": "endogenous in cells; host or cells: AR42J cells", "T2 sequence (P30553 1-452)": "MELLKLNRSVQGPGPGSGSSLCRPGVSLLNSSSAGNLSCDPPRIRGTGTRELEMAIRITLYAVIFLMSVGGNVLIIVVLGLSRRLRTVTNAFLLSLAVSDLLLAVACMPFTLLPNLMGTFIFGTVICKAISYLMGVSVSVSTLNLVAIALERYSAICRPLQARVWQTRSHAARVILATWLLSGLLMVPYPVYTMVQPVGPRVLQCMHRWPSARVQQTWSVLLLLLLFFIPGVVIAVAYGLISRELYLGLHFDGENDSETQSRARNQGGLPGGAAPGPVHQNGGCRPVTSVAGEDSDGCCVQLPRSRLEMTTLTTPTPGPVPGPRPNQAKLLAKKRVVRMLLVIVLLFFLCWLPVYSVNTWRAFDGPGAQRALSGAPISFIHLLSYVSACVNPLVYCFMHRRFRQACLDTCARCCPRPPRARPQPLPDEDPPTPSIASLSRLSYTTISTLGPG", "assay": "Displacement of 125I-BH-CCK8 binding to AR42J cells", "experimental": "Cells were incubated with the indicated radio labeled ligand in the presence or absence of increasing concentrations of either CCK8, G17 or rhPG. The relative binding affinity of the gastrin like peptides for the specific binding sites for rhPG (FIGS. 8A and B) (Annexin II) and CCK8 (FIG. 8C) to CCK2R was calculated.\nIn a few experiments, ^125I-Bolton Hunter-CCK-8 (Amersham Biosciences, Piscataway, N.J.) was used as the radiolabeled ligand and the RBA of gastrin like peptides for displacing the binding of ^125I-BH-CCK8 to AR42J cells examined by our published methods (Singh et al, 1995)."}, "[4]": {"tested_on": "mouse colon cancer (CA) cells", "assay": "Growth of mouse colon cancer (CA) cells in immunized Balb/c mice", "format": "in vivo", "conditions": "CA cells inoculated at week 10, sacrificed week 14, control adjuvant alone, listed as hPG-immunogen", "excerpt": "(§1) FIGS. 6A-6C show immune response induced by hPG-fusion protein (FP) immunogen in different mouse models. […] The immunized Balb/c mice were inoculated with mouse CA cells at week 10 and sacrificed at week 14 and the tumors in the mice were weighed. Control mice received adjuvant alone. The weight of the tumors is indicated by an arrow against Ab titer of each mouse in mgs. Tumor weights from 3 of 6 animals are presented. […] FIGS. 6B and 6C show effect of vaccination with rhPG-FP immunogen on colon carcinogenesis in FVB/N mice. FVB/N mice were immunized with the hPG-fusion protein (FP) immunogen by 3-4 weekly injections and the PG-Ab titers were measured as described for the Balb/c mice. Once the mice developed significant PG-Ab titers, the mice were treated with azoxymethane (AOM) and the total number and size of tumors measured after 6 months of AOM treatment. The number of tumors (FIG. 6B) and the tumor burden (FIG. 6C) is presented herein. *=p<0.05 vs control values. Control mice were immunized with adjuvant alone.\n(§2) Since autocrine and endocrine PG might be playing an important role in colon carcinogenesis, the possibility of using an rhPG fusion protein as an immunogen for treatment purposes was examined. Briefly, the rhPG fusion protein (FP) was used as an immunogen in Balb/C, FVB/N and FABP-PG mice. […]"}, "[5]": {"tested_on": "colon tumors in FVB/N mice", "assay": "AOM-induced colon carcinogenesis in immunized FVB/N mice", "format": "in vivo, mouse", "conditions": "6 months after AOM, vs adjuvant alone", "excerpt": "as §1, §2"}}, "data": [{"molecule": "CCK: cholecystokinin (CCK-8), amidated peptide closely related to gastrin", "values": [{"measurement": "displacement of binding of radio-labeled rhPG / binding affinity for PG binding sites", "setting": "[1]", "result": "negligible binding affinity"}]}, {"molecule": "G17: 17 amino acid C-terminally amidated gastrin peptide", "values": [{"measurement": "displacement of binding of radio-labeled rhPG / binding affinity for PG binding sites", "setting": "[1]", "result": "negligible binding affinity"}]}, {"molecule": "thioredoxin: recombinant bacterial thioredoxin carrier protein expressed in E. coli, used alone as immunogen [reference compound]", "values": [{"measurement": "anti-thioredoxin-antibody titers", "setting": "thioredoxin", "result": "significant titers"}, {"measurement": "development of ACF in response to AOM", "setting": "[2]", "result": "significantly enhanced"}, {"measurement": "anti-PG-antibody titers", "setting": "progastrin", "result": "not effective at all"}]}, {"molecule": "PG: full-length recombinant human progastrin PG1-80, 80 amino acids (SEQ ID NO:3), generated in E. coli (protein, sequence of progastrin peptide expressed by recombinant expression vector) SWKPRSQQPDAPLGTGANRDLELPWLEQQGPASHHRRQLGPQGPPHLVADPSKKQGPWLEEEEEAYGWMDFGRRSAEDEN", "values": [{"measurement": "development of ACF in response to AOM", "setting": "[2]", "result": "significantly enhanced"}, {"measurement": "growth factor-like effects on cells", "setting": "[3]", "result": "potent growth factor-like effects"}, {"measurement": "displacement of binding of 125I-BH-CCK8 to CCK2R", "setting": "CCK2R", "result": "largely ineffective"}, {"measurement": "anti-PG-antibody titers", "setting": "progastrin", "result": "much less effective"}, {"measurement": "anti-PG-antibody titers", "setting": "progastrin; listed as PG peptide", "result": "much lower levels"}, {"measurement": "displacement of binding of radio-labeled rhPG / binding affinity for PG binding sites", "setting": "[1]", "result": "dose-dependently displaced"}]}, {"molecule": "rhPG fusion protein (FP): full length human progastrin protein fused with carrier protein thioredoxin (from bacteria), expressed in E. coli, used as immunogen (protein, left off: large carriers; small tags and cut ends, full length human progastrin protein fused with carrier protein thioredoxin (from bacteria), expressed in E. coli, used as immunogen) SWKPRSQQPDAPLGTGANRDLELPWLEQQGPASHHRRQLGPQGPPHLVADPSKKQGPWLEEEEEAYGWMDFGRRSAEDEN", "values": [{"measurement": "CA tumor weights reduced compared to control mice", "setting": "[4]", "result": "15-30%"}, {"measurement": "development of ACF in response to AOM", "setting": "[2]", "result": "complete attenuation"}, {"measurement": "total number of tumors", "setting": "[5]", "result": "significantly (p<0.05) reduced"}, {"measurement": "tumor burden/mouse", "setting": "[5]", "result": "significantly (p<0.05) reduced"}, {"measurement": "titers of specific anti-hPG-Abs", "setting": "progastrin; Balb/C, FVB/N and FABP-PG mice, within 4-8 weeks of vaccination", "result": "very high titers"}, {"measurement": "generation of PG antibodies, FP vs PG alone", "setting": "progastrin; PS21 mice", "result": 2, "unit": "fold"}, {"measurement": "anti-PG-antibody titers", "setting": "progastrin", "result": "2 fold to much higher titers"}, {"measurement": "anti-PG-antibody titers", "setting": "progastrin; listed as progastrin fusion protein", "result": "strong response"}]}]}
